Values of other authors as cited in article PMC3042137.

Biological target: JIP1 (L-pepJIP1) (Homo sapiens) (UniProt Q9UQF2)
Assay: ITC

UniProt Q9UQF2, sequence (Q9UQF2 whole entry): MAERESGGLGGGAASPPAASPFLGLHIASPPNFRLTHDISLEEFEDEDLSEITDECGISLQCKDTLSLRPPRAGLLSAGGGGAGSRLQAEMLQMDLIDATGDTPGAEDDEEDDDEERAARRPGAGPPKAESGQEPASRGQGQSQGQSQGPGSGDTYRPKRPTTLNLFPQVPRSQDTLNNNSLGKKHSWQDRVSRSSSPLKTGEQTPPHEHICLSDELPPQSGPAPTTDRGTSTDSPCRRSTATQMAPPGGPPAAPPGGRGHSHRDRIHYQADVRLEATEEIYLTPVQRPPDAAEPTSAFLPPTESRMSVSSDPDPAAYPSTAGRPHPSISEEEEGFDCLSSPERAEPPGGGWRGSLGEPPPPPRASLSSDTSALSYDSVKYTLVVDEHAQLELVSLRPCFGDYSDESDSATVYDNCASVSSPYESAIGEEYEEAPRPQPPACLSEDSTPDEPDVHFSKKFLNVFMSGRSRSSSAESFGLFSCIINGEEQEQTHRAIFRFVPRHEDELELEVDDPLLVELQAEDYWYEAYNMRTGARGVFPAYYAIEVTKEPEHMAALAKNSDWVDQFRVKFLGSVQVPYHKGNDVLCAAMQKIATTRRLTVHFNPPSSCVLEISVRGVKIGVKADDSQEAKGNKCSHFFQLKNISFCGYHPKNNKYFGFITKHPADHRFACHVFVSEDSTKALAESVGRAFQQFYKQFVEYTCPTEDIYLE

Kd: 420 nM
Substance: JNK1 (from UniProt P45983)
